# Data from US20250282872A1 (ANAPTYSBIO, published 2025).
# B1: 6G3 IgG4 anti-BTLA antibody (antibody, V domains shown)
# VH: QVQLVQSGAEVKKPGSSVKVSCKASGYVFSTSWMNWVRQAPGQGLEWMGRIYPGDADTNYVGKFKGRVTITADKSTTTAYMELSSLRSEDTAVYFCAKSGTFNFGNYRWYFDVWGKGTTVTVSS
# VL: AIQLTQSPSSLSASVGDRVTITCRVSENIYSHLAWYQQKPGKAPKLLIYAATNLALGVPSRFSGSGSGTDYTLTISSLQPEDFATYYCQLFWGPPLTFGGGTKVEIKR
# notes: Humanized, IgG4; also called APE10840; APE10840.03
# B2: Proteinase 3 (PR3), purified recombinant (protein)
# chain: IVGGHEAQPHSRPYMASLQMRGNPGSHFCGGTLIHPSFVLTAAHCLRDIPQRLVNVVLGAHNVRTQEPTQQHFSVAQVFLNNYDAENKLNDVLLIQLSSPANLSASVATVQLPQQDQPVPHGTQCLAMGWGRVGAHDPPAQVLQELNVTVVTFFCRPHNICTFVPRRKAGICFGDSGGPLICDGIIQGIDSFVIWGCATRLFPDFFTRVALYVDWIRSTLR
# What was measured:
# [1] = target: cynomolgus monkey BTLA on cells (cynomolgus monkey); assay: flow cytometry dot plot, cynomolgus monkey lysed whole blood, CD3 (PerCP Cy5.5) against BTLA (APC), 33 nM antibody
# [2] = target: β-galactosidase enzyme donor (ED)-tagged human BTLA on Jurkat cells (human, UniProt Q7Z6A9 31-289); assay: cell-based or functional assay
# [3] = target: T1, cynomolgus monkey BTLA on cells (cynomolgus monkey, UniProt A0A2K5W7M7 31-289); assay: flow cytometry on cynomolgus monkey whole blood, staining of CD20+ B cells against CD3+ T cells
# T1 construct: whole, on cells; also called 293c18 clone 1G5; BTLA on cynomolgus monkey peripheral blood T and B cells
# T1 sequence: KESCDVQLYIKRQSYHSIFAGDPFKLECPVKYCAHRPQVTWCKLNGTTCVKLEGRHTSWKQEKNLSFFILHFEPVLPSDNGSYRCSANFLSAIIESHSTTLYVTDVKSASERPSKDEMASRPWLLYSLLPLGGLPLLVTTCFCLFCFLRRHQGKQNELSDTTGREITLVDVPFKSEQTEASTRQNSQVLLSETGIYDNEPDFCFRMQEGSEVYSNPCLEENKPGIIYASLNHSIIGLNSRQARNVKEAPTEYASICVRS
# Procedure: Blood was then aliquoted into wells and incubated with the indicated concentrations of 6G3-AF647 (APE13766.02), or APC-Mouse Anti-Human CD272 (BTLA) reference antibody (clone J168-540; BD Biosciences) for 30 minutes at room temperature, in the dark. Following incubation, red blood cells were lysed for 10 minutes by addition of 2.0 ml diluted BD Pharm Lyse lysing solution (BD Biosciences), samples centrifuged at 200×g for 5 minutes, washed in FACS Buffer [Dulbecco's PBS, no calcium, no magnesium (Gibco/ThermoFisher Scientific), 25 mM HEPES, pH 7.2, 0.1% BSA, 0.1% sodium azide] and fixed in 4% paraformaldehyde (200 μl/sample) for 10 minutes at room temperature. Samples were washed twice in FACS Buffer and analyzed for fluorescence on a NovoCyte Quanteon flow cytometer (ACEA Biosciences, Inc.). Data were analyzed using NovoExpress Software (ACEA Biosciences, Inc.). Mean fluorescence intensity (MFI) values were graphed and fit with nonlinear regression analyses in GraphPad Prism (GraphPad Software, Inc.). MFI values for each anti-BTLA antibody on total CD3⁺ cells are shown in FIG. 5A; MFI values for each anti-BTLA antibody on total […] are shown in FIG. 5B. […] Binding of each anti-BTLA antibody to CD3⁻ cells in FIG. 5C and FIG. 5D (green cells in the bottom quadrants of each panel) reflects the binding to CD20+ B cells. […]
# [4] = target: T2, BTLA-ECD, purified recombinant (Example 19)
# T2 sequence (Q7Z6A9 31-157, species assumed, looked up): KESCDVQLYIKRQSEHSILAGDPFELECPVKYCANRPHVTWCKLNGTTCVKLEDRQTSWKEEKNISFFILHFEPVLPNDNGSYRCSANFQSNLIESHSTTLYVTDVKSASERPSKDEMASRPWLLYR
molecule,measurement,setting,value
APC-Mouse Anti-Human CD272 (BTLA) reference antibody clone J168-540 (BD Biosciences),"% of cells in quadrant Q8-2 (CD3+, BTLA stain positive)",[1],35.8%
same,"% of cells in quadrant Q8-4 (CD3-, BTLA stain positive)",[1],28%
same,Total BTLA (% of cells stained),[1],63.9%
B1,"SHP2 recruitment PathHunter Jurkat BTLA signaling assay with U-2 OS hFcγRIa cells, EC50",[2],0.0093 µg/mL
same,"SHP2 recruitment PathHunter Jurkat BTLA signaling assay, soluble antibody, EC50",[2],0.125 µg/mL
same,fold change of agonist potency with against without cell-associated FcγRIa,[2],~13 fold
same,MFI on B cells relative to MFI on T cells,[3],~9 fold
B2,proteolytic cleavage after co-incubation for up to 60 minutes (gel lanes),[4],soluble BLTA-ECD was cleaved into multiple smaller fragments
